Experimental data as given in the supplement of paper PMC10567573.

B1: ZNF263 (parent)
chain: VPGTQVGQGGKLWDPSVQSCKEGL

Variants of: B1
Test: protein stability index of a GFP-peptide fusion (GPS, HEK-293T) (PSI 1-6); higher = more stable
Conditions: c terminus: a fixed tail appended
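Note: lentivirally expressed fusions sorted by FACS into six bins by GFP to DsRed ratio, PSI derived from sequencing read proportions per bin multiplied by bin number.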

Variant | protein stability index
VIGTQVGQGGKLWDPSVQSCKEGL | 3.19
VQGTQVGQGGKLWDPSVQSCKEGL | 3.87
VRGTQVGQGGKLWDPSVQSCKEGL | 4.24
VEGTQVGQGGKLWDPSVQSCKEGL | 4.25
VMGTQVGQGGKLWDPSVQSCKEGL | 4.26
VHGTQVGQGGKLWDPSVQSCKEGL | 3.75
VAGTQVGQGGKLWDPSVQSCKEGL | 4.17
VLGTQVGQGGKLWDPSVQSCKEGL | 3.89
VPGTQVGQCGKLWDPSVQSCKEGL | 3.73
VPGTQVGQEGKLWDPSVQSCKEGL | 4.61
VPGTQVGQFGKLWDPSVQSCKEGL | 3.87
VPGTQVGQDGKLWDPSVQSCKEGL | 4.55
VPGTQVGQMGKLWDPSVQSCKEGL | 3.42
VPGTQVGQIGKLWDPSVQSCKEGL | 3.8
VPGTQVGQKGKLWDPSVQSCKEGL | 4.25
VPGTQVGQHGKLWDPSVQSCKEGL | 4.34
VPGTQVGQAGKLWDPSVQSCKEGL | 4.03
VPGTQVGQLGKLWDPSVQSCKEGL | 4.19
VPGTQVIQGGKLWDPSVQSCKEGL | 3.67
VPGTQVAQGGKLWDPSVQSCKEGL | 4.02
VPGTQVMQGGKLWDPSVQSCKEGL | 3.91
VPGTQVPQGGKLWDPSVQSCKEGL | 3.78
VPGTQVSQGGKLWDPSVQSCKEGL | 4.41
VPGTQVYQGGKLWDPSVQSCKEGL | 3.86

Variant | protein stability index
VPGTQVDQGGKLWDPSVQSCKEGL | 4.24
VPGTQVWQGGKLWDPSVQSCKEGL | 4.06
VPGTQVQQGGKLWDPSVQSCKEGL | 3.69
VPGTQVEQGGKLWDPSVQSCKEGL | 4.41
VPGTQVLQGGKLWDPSVQSCKEGL | 3.77
VPGTQVKQGGKLWDPSVQSCKEGL | 3.81
VPGTQVTQGGKLWDPSVQSCKEGL | 3.33
VPGTQVRQGGKLWDPSVQSCKEGL | 3.68
VPGTQVVQGGKLWDPSVQSCKEGL | 3.87
VPGTQVCQGGKLWDPSVQSCKEGL | 4.29
VPGTQVHQGGKLWDPSVQSCKEGL | 3.78
VPGTQVNQGGKLWDPSVQSCKEGL | 4.76
VPGTQVFQGGKLWDPSVQSCKEGL | 3.36
VPGTQQGQGGKLWDPSVQSCKEGL | 4.73
VPGTQRGQGGKLWDPSVQSCKEGL | 4.55
VPGTQHGQGGKLWDPSVQSCKEGL | 3.51
VPGTQFGQGGKLWDPSVQSCKEGL | 4.65
VPGTQTGQGGKLWDPSVQSCKEGL | 4.7
VPGTQSGQGGKLWDPSVQSCKEGL | 4.67
VPGTQIGQGGKLWDPSVQSCKEGL | 4.28
VPGTQMGQGGKLWDPSVQSCKEGL | 4.29
VPGTQYGQGGKLWDPSVQSCKEGL | 3.82
VPGTQCGQGGKLWDPSVQSCKEGL | 3.49
VPGTQLGQGGKLWDPSVQSCKEGL | 4.03

Variant | protein stability index
VPGTQDGQGGKLWDPSVQSCKEGL | 4.3
VPGTQAGQGGKLWDPSVQSCKEGL | 3.97
VPGTQGGQGGKLWDPSVQSCKEGL | 4.83
VPGTQNGQGGKLWDPSVQSCKEGL | 4.47
VPGTQWGQGGKLWDPSVQSCKEGL | 3.36
VPGTQKGQGGKLWDPSVQSCKEGL | 4.69
VPGTQEGQGGKLWDPSVQSCKEGL | 4.29
VPGTQPGQGGKLWDPSVQSCKEGL | 4.26
VPGTQVGKGGKLWDPSVQSCKEGL | 4.11
VPGTQVGWGGKLWDPSVQSCKEGL | 3.67
VPGTQVGIGGKLWDPSVQSCKEGL | 4.15
VPGTQVGAGGKLWDPSVQSCKEGL | 4.41
VPGTQVGTGGKLWDPSVQSCKEGL | 3.56
VPGTQVGPGGKLWDPSVQSCKEGL | 4.07
VPGTQVGFGGKLWDPSVQSCKEGL | 4.17
VPGTQVGGGGKLWDPSVQSCKEGL | 4.28
VPGTQVGSGGKLWDPSVQSCKEGL | 3.71
VPGTQVGDGGKLWDPSVQSCKEGL | 4.71
VPGTQVGLGGKLWDPSVQSCKEGL | 3.79
VPGTQVGRGGKLWDPSVQSCKEGL | 4.34
VPGTQVGNGGKLWDPSVQSCKEGL | 4.24
VPGTQVGCGGKLWDPSVQSCKEGL | 3.07
VPGTQVGHGGKLWDPSVQSCKEGL | 4.12
VPGTQVGEGGKLWDPSVQSCKEGL | 3.48

Variant | protein stability index
VPGTQVGYGGKLWDPSVQSCKEGL | 3.21
VPGTQVGMGGKLWDPSVQSCKEGL | 3.97
VPGTQVGVGGKLWDPSVQSCKEGL | 4.04
VPGHQVGQGGKLWDPSVQSCKEGL | 4.1
VPGWQVGQGGKLWDPSVQSCKEGL | 3.55
VPGRQVGQGGKLWDPSVQSCKEGL | 3.92
VPGLQVGQGGKLWDPSVQSCKEGL | 4.38
VPGIQVGQGGKLWDPSVQSCKEGL | 3.42
VPGEQVGQGGKLWDPSVQSCKEGL | 3.4
VPGFQVGQGGKLWDPSVQSCKEGL | 4.15
VPGSQVGQGGKLWDPSVQSCKEGL | 4.08
VPGCQVGQGGKLWDPSVQSCKEGL | 4
VPGAQVGQGGKLWDPSVQSCKEGL | 4.55
VPGQQVGQGGKLWDPSVQSCKEGL | 4.23
VPGYQVGQGGKLWDPSVQSCKEGL | 4.08
VPGMQVGQGGKLWDPSVQSCKEGL | 3.92
VPGVQVGQGGKLWDPSVQSCKEGL | 4.57
VPGKQVGQGGKLWDPSVQSCKEGL | 3.96
VPGNQVGQGGKLWDPSVQSCKEGL | 4.44
VPGDQVGQGGKLWDPSVQSCKEGL | 4.85
VPGGQVGQGGKLWDPSVQSCKEGL | 4.26
VPGPQVGQGGKLWDPSVQSCKEGL | 4.29
